# Assay results reported in the supplement of paper PMC10567573.
# B1: SNF8 addC (peptide)
# chain: LPALFTDLYSQEITAEEAREALPC
# B2: TRPA1 addC (peptide)
# chain: EQRNSRWNTVLRAVKAKTHHLEPC
# B3: BEX2 addC (peptide)
# chain: HSLRAVSTDPPHHDHHDEFCLMPC
# B4: PSMB5 addC (peptide)
# chain: DGWIRVSSDNVADLHEKYSGSTPC
# B5: POLD2 addC (peptide)
# chain: CQPISFSGFGAEDDDLGGLGLGPC
# Test: protein stability index of a GFP-peptide fusion (GPS, HEK-293T) (PSI 1-6); higher = more stable
# Conditions: c terminus: native
# 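Further: lentivirally expressed fusion library, cells FACS-sorted into six equal-sized GFP/DsRed ratio bins, PSI computed from sequencing read fractions per bin weighted by bin number.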
protein,measurement,setting,value
B1,protein stability index,parent: NP_009172.2,3.81
B2,protein stability index,parent: NP_015628.1,4.32
B3,protein stability index,parent: NP_116010.1,3.48
B4,protein stability index,parent: NP_002788.1,2.89
B5,protein stability index,parent: NP_006221.1,2.27
